B1: 6× His-tagged Hag protein (natural protein)
chain: not shown
modifications: labelled with Cy5-NHS ester (in the MST assay only)
B2: ∆Hag (flg22), Hag with the flg22 region deleted (domain or fragment)
chain: not shown

Each binder was assayed against T1, lantibiotic subtilomycin (Bacillus subtilis BSn5, lantibiotic; ApnB carries out the essential dehydration reaction of its biosynthesis; the modified residues are not listed) (assay: MST; protein labelled with Cy5-NHS ester at fixed concentration, serial 2x dilutions of unlabelled subtilomycin (1 mM set as highest; 500 μM highest final in the legend); PBS pH 8.0; MST power 20%, LED power 60%; Monolith NT.115; constants called ambiguous, based on total subtilomycin concentration). Conditions: both partners purified.
T1 construct: subtilomycin, the lantibiotic made from the structural peptide encoded by apnA of Bacillus subtilis BSn5; exact molecular weight 3234.36 Da; Purified subtilomycin holds oligomers (trimers, tetramers, pentamers); source: B. subtilis BSn5 ∆hag mutant, 30% ammonium sulfate precipitate of culture supernatant, purified by prep-HPLC; also native in Apn5 (30% ammonium sulfate precipitate of BSn5 culture …)

Going from B1 to B2, the Kd rises from 18.8 ± 4.15 µM to 66.4 ± 9.11 µM (3.5-fold). The first binds more tightly here.

In the case of EKLSSGLRINRAGDDAAGLAIS [flg22 (Bs), synthetic flg22 peptide of B. subtilis Hag], the Kd is reported as 169 ± 10.4 µM.

Source: PMC6787100, “Endophyte Bacillus subtilis evade plant defense by producing lantibiotic subtilomycin to mask self-produced flagellin” (Communications Biology, 2019)
